Laboratory results taken from patent US20140079714A1 (published 2014).

T1: human interleukin 12 (hIL-12), p70 heterodimer of p35 and p40 (human, UniProt P29459 23-219; P29460 23-328)
T1 construct: the text says recombinant human IL-12. p35 and p40 are disulfide-linked; also called rh IL-12
T1 sequence (looked up) 1: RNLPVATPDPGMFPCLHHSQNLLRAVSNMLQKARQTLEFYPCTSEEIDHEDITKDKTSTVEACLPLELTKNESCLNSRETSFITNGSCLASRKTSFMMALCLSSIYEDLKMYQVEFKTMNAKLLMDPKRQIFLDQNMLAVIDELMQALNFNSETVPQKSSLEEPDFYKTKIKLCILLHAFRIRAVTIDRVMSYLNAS
T1 sequence (looked up) 2: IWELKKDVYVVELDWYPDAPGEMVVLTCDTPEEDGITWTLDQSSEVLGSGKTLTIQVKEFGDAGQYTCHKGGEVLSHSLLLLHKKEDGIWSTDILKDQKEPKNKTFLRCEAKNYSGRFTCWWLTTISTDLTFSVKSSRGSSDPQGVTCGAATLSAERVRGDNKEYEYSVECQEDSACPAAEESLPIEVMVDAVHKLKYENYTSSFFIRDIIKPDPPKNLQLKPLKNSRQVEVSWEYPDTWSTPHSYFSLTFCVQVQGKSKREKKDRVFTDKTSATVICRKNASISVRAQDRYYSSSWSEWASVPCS


Assays:
[1] = biological target: T1, human interleukin 12 (hIL-12), p70 …; assay: RB assay: inhibition of IL-12 binding to its receptor
[2] = biological target: T1, human interleukin 12 (hIL-12), p70 …; assay: cell-based or functional assay
[3] = biological target: T1, human interleukin 12 (hIL-12), p70 …; assay: koff, Table 2 (surface plasmon resonance per text)
[4] = biological target: T1, human interleukin 12 (hIL-12), p70 …; assay: cell-based or functional assay; remark: listed apart in the source

IC50 [1] | IFN gamma IC50 [2] | koff [3] | PHA assay IC50 [2] | PHA assay IC50 (M) p70:p40 1:0 [4] | PHA assay IC50 (M) p70:p40 1:20 [4] | PHA assay IC50 (M) p70:p40 1:50 [4] | Binder
0.06 nM | 40 pM | 0.000127 s⁻¹ | 50 pM | – | – | – | Y61-L94Y IgG (antibody, V domains shown, IgG) VH: QVQLVQSGGGVVQPGRSLRLSCAASGFTFSSYGMHWVRQAPGKGLEWVAFIRYDGSNKYYADSVKGRFTISRDNSKNTLYLQMKSLRAEDTAVYYCKTHGSHDNWGQGTMVTVSS VL: SYVLTQPPSVSGTPGQRVTISCSGGRSNIGSNTVKWYQQLPGTAPKLLIYGNDQRPSGVPDRFSGSKSGTSASLAITGVQAEDEADYYCQSYDRYTHPALLFGTGTKVTVLG
– | 20 pM | 2.99e-05 s⁻¹ | 60 pM | – | – | – | Y-61-L50Y-H31E**gG (antibody, V domains shown, also called Y61-L50Y-H31E IgG) VH: QVQLVQSGGGVVQPGRSLRLSCAASGFTFSEYGMHWVRQAPGKGLEWVAFIRYDGSNKYYADSVKGRFTISRDNSKNTLYLQMKSLRAEDTAVYYCKTHGSHDNWGQGTMVTVSS VL: SYVLTQPPSVSGTPGQRVTISCSGGRSNIGSNTVKWYQQLPGTAPKLLIYYNDQRPSGVPDRFSGSKSGTSASLAITGVQAEDEADYYCQSYDRGTHPALLFGTGTKVTVLG
– | – | – | – | 3.5e-09 M | 2.5e-09 M | 4e-09 M | 149-7 (antibody, V domains shown) VH: TTHGSHDNWGQG VL: QSYDRDFTGSRV

The next lines start with the binder.

Binder | IC50 [1] | IFN gamma IC50 [2] | koff [3] | PHA assay IC50 [2] | PHA assay IC50 (M) p70:p40 1:0 [4] | PHA assay IC50 (M) p70:p40 1:20 [4] | PHA assay IC50 (M) p70:p40 1:50 [4]
Y61-L50Y (antibody, V domains shown) VH: QVQLVQSGGGVVQPGRSLRLSCAASGFTFSSYGMHWVRQAPGKGLEWVAFIRYDGSNKYYADSVKGRFTISRDNSKNTLYLQMKSLRAEDTAVYYCKTHGSHDNWGQGTMVTVSS VL: SYVLTQPPSVSGTPGQRVTISCSGGRSNIGSNTVKWYQQLPGTAPKLLIYYNDQRPSGVPDRFSGSKSGTSASLAITGVQAEDEADYYCQSYDRGTHPALLFGTGTKVTVLG | 0.02 nM | 20 pM | – | – | – | – | –
Y61-L50Y* IgG (antibody, V domains shown, IgG) VH: QVQLVQSGGGVVQPGRSLRLSCAASGFTFSSYGMHWVRQAPGKGLEWVAFIRYDGSNKYYADSVKGRFTISRDNSKNTLYLQMKSLRAEDTAVYYCKTHGSHDNWGQGTMVTVSS VL: SYVLTQPPSVSGTPGQRVTISCSGGRSNIGSNTVKWYQQLPGTAPKLLIYYNDQRPSGVPDRFSGSKSGTSASLAITGVQAEDEADYYCQSYDRGTHPALLFGTGTKVTVLG | – | 30 pM | 6.98e-05 s⁻¹ | 20 pM | – | – | –
